Data reported in patent publication US20210261643A1, “INHIBITORS OF P-TEFB MEDIATED TRANSCRIPTION” (The Regents of the University of California, priority 2018, published 2021).

Experiments:
[1] = test system: HIV reactivation in J-Lat 9.2 cells; experiment: HIV reactivation in J-Lat 9.2 latent infection model, FACS of GFP positive cells; assay type: cell-based; settings: J-Lat 9.2 cells, PMA 100 nM
Excerpt: FIGS. 4A and 4B. Stable expression of HT1 inhibits HIV reactivation. FIG. 4A: Stable expression of HT1 inhibits HIV reactivation from 2D10 cells. 3f:HT1 was stably expressed in 2D10 cells (D-HT cells). […] Error bars represent standard deviation from triplicate FACS analysis. FIG. 4B: Stable expression of HT1 inhibits HIV reactivation from J-Lat 9.2 cells. 3f:HT1 was stably expressed in J-Lat 9.2 cells (L-HT cells). […] Error bars represent standard deviation from triplicate FACS analysis.
To test the effect of HT1 on HIV-1 in T-lymphocyte derived cells, 3f:HT1 was stably expressed in HIV latent infection models 2D10 and J-Lat 9.2 cells (D-HT and L-HT cells respectively), which carry replication-defective, GFP-flagged HIV proviruses. In both 2D10 and J-Lat 9.2, the basal HIV transcription level is undetectable, as measured through GFP expression. Compounds such as the PKC agonist PMA, the histone deacetylase inhibitor SAHA or the BET bromodomain inhibitor JQ1 reactivate HIV transcription and increase GFP-positive cells detected by FACS analysis. 2D10 cells are more sensitive to HIV reactivation than J-Lat 9.2 cells, though they harbor a mutation in the N-terminal sequence of Tat (H13L). 2D10 and D-HT cells were incubated for 24 hrs with PMA (10 nM), SAHA (5 μM) or JQ1 (1 μM) and GFP positive cells were detected by FACS analysis. […]

[2] = test system: Tat-dependent gene expression from the HIV promoter; experiment: Luciferase reporter assay, pLTR-Luc co-transfected with pTat and pHT in 293T cells; assay type: cell-based
Excerpt: FIGS. 2A, 2B, and 2C. A HEXIM1-Tat fusion peptide inhibits gene expression from the HIV promoter. FIG. 2A. Structure of the HEXIM1-Tat fusion peptides used in the study. The functional domains used from HEXIM1 and Tat include a HEXIM1 Arginine Rich Motif (ARM, black box, residues 150-162) that binds RNA, a HEXIM1 inhibitory domain (ID, light grey box, residues 200-211) that inhibits CDK9 through a PYNT motif, and Tat transactivation domain (AD, dark grey box, residues 1-48) that binds to P-TEFb. The conceptual schemes are not drawn to scale. FIG. 2B. Transient expression of HT1 inhibits Tat-induced LTR-driven Luc expression. Upper panel: a schema depicts the reporter assay. A luciferase reporter gene (Luc) is under the control of the HIV promoter (P-HIV) and can be activated by ectopically expressed Tat. The Luc assay was used to titrate the inhibitory effect of HT1-3 on P-HIV transactivation by Tat. Middle panel: increasing amounts of m:HT1, m:HT2 or m:HT3 expressing plasmid (pHT) were co-transfected in 293T cells with a plasmid (pTat) expressing f:Tat and another (pLTR-Luc) expressing Luc under the control of the HIV promoter. Luc activity was plotted as % activity relative to control (empty vector used instead of pHT), depending on the transfected pHT:pTat ratio. Error bars in the graph represent standard deviation from triplicate experiments. FIG. 2C. Transient expression of HT1 inhibits Luc expression from HIV-1 NL43ΔenvLuc. Top schema depicts the reporter assay. A luciferase reporter gene (Luc) is inserted in a replication-defective HIV-1 molecular clone (pNL43ΔenvLuc) in which Luc and Tat are under the control of the HIV promoter (P-HIV). A Luc assay was used to titrate the inhibitory effect of HT1-3 on P-HIV transactivation by Tat. Bottom: increasing amounts of pHT1 were co-transfected in 293T cells with pNL43ΔenvLuc. Luc activity was plotted as % activity relative to control (empty vector used instead of pHT), depending on the transfected amounts of pHT1. Error bars in the graph represent standard deviation from triplicate experiments.
Luciferase (Luc) reporter assays were performed to titrate the potency of each chimera to inhibit Tat-dependent gene expression from the HIV promoter. Effector plasmids included pHT1-3 and pTat, which respectively expressed a Myc-epitope tag chimera (m:HT1-3) and a Flag-epitope tagged Tat (f:Tat). pHT1, pHT2 or pHT3 was transiently co-transfected in 293T cells with pTat and a Luc reporter gene under the control of the HIV promoter (P-HIV, expressed from the plasmid pLTR-Luc). […] Finally, HT1 lead to a 4-fold decrease in Luc expression at a 2:1 ratio. […] Similar results were obtained when co-transfecting pHT1-3 and pTat in NIH1 cells, which stably carry an LTR-Luc reporter gene. Thus, we selected HT1 for further investigation.

HIV TAR RNA = experiment: RNA immunoprecipitation and RT-qPCR with TAR-specific primers in 293T cells; assay type: binding; settings: 293T cells, anti-Myc Ab, RT-qPCR
Description: FIGS. 3A, 3B, 3C and 3D. HT1 prevents Tat from bringing active P-TEFb to TAR. FIG. 3A: HT1 inhibits the kinase activity of P-TEFb subunit CDK9. m:HT1 and/or f:Tat were transiently expressed in 293T cells. Cell lysates were used for IP using anti-Myc Ab (lanes 2-4), or control IgG (lane 1). Immunoprecipitates were incubated with ATP and recombinant GST-CTD proteins for in vitro kinase assay. Six replicate experiments were performed, and mean relative kinase activities are shown in the bar graph to the right. FIG. 3B: HT1 binds to TAR. m:HT1 or m:Tat (or empty vector, EV, as a control) was transiently co-expressed with TAR RNA-expressing pU16TAR in 293T cells. Cell lysates were used for IP using anti-Myc Ab or control IgG. RNA was purified from the immunoprecipitates and submitted to RT-qPCR using TAR-specific primers. Relative TAR enrichment was calculated as qPCR count using anti-Myc Ab minus using IgG, and normalized to EV. Error bars represent standard deviation from triplicate qPCR assays. […] Error bars represent standard deviation from triplicate qPCR assays. FIG. 3D: HT1 competes with Tat for TAR binding. m:HT1 and/or f:Tat were transiently co-expressed with TAR RNA-expressing pU16TAR in 293T cells. Cell lysates were used for IP using anti-Myc Ab or control IgG. RNA was purified from the immunoprecipitates and submitted to RT-qPCR using TAR-specific primers (upper panel). Relative TAR enrichment was calculated as qPCR count using anti-Myc Ab minus using IgG, and normalized to EV. Error bars represent standard deviation from triplicate qPCR assays.
Finally, since HEXIM1 ARM resembles the TAR-binding domain from Tat, we investigated whether HT1 could bind to HIV TAR. m:HT1 or m:Tat was co-expressed in 293T cells with TAR RNA, expressed under RNA Polymerase III dependent H1 promoter, and immunoprecipitated using anti-Myc Ab or IgG as a control. TAR RNAs co-immunoprecipitated with HT1 or Tat were quantified by RT-qPCR analysis. […] To test whether HT1 affects Tat-TAR interactions, increasing amounts of m:HT1 were also co-expressed with a fixed amount of f:Tat and TAR. […] As expected, HT1 also bound to endogenous 7SK snRNA.

[3] = molecular target: positive transcription elongation factor B (UniProt O60563 1-726; P50750 1-372); experiment: cell-based or functional assay
Chain of positive transcription elongation factor B (O60563 whole entry, chain 1 of 2): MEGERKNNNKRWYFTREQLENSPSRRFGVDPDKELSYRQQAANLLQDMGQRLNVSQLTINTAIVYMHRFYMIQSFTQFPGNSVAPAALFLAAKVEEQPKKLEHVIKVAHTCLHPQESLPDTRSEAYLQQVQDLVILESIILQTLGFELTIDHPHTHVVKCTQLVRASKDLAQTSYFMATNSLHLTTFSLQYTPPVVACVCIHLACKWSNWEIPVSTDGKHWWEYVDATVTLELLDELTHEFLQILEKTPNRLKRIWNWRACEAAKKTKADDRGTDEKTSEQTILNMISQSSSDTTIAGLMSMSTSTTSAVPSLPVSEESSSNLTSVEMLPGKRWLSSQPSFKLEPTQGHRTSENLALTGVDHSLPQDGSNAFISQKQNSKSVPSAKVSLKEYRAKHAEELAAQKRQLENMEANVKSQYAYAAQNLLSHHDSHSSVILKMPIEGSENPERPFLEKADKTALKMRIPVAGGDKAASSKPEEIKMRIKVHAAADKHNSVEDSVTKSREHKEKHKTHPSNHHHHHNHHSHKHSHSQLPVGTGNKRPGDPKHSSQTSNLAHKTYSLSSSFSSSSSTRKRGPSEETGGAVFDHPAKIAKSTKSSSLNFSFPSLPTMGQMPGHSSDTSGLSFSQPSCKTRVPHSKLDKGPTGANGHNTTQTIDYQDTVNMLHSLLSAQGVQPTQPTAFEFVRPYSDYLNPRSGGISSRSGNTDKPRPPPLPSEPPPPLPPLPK
Chain of positive transcription elongation factor B (P50750 whole entry, chain 2 of 2): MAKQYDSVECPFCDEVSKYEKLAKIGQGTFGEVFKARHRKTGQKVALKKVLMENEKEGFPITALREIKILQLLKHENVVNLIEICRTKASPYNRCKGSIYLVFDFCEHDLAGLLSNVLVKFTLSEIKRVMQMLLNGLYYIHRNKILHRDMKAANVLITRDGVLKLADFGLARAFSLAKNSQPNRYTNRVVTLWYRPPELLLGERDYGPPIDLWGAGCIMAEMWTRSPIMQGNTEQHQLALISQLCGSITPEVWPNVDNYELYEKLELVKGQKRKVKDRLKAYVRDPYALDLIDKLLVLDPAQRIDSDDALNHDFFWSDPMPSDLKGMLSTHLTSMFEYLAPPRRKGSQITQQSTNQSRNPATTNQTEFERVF

## CCCCCCCCCCCCCC(=O)O[C@@H]1[C@@H](C)[C@@]2(O)[C@@H](C=C(CO)C[C@]3(O)C(=O)C(C)=C[C@@H]23)[C@@H]2C(C)(C)[C@]12OC(C)=O [PMA, reference compound]
[1]
  increase in GFP expression: 12%

B1: THT: fusion protein of TAT ARM, HEXIM CDK9 inhibitory domain and TAT P-TEFb-binding domain (protein)
chain: MEQKLISEEDLRKKRRQRRRAPPGGGGSRIRAEMFAKGQPVAPYNTTQFLMDDHDQEEPDLVDMEPVDPYLEPWKHPGSQPRTACNNCYCKKCCFHCYACFTRKGLGISYG
[2]; luciferase assays performed as in Example 1
  inhibition of HIV transcription in luciferase assays (in words): potently inhibited

B2: HT3 (protein)
chain: FDEKQSLRASRIRAEMFAKGQPVAPYNTTQFLMDDHDQEEPDLVDMEPVDPYLEPWKHPGSQPRTACNNCYCKKCCFHCYACFTRKGLGISYG
HIV TAR RNA
  immunoprecipitation of TAR RNA (in words): failed to bind TAR
[2]; 293T cells, pHT:pTat ratio 2:1
  decrease in Luc expression from the HIV promoter: ≤ 2 fold

B3: Myc-epitope tagged HEXIM1-Tat chimera HT1 (designed binder)
chain: KKKHRRRPSKKKRHWKPYYKLTWEEKKKFDEKQSLRASRIRAEMFAKGQPVAPYNTTQFLMDDHDQEEPDLVDMEPVDPYLEPWKHPGSQPRTACNNCYCKKCCFHCYACFTRKGLGISYG
[3]
  fold decrease in relative kinase activity (CTD-P band intensity normalized with CDK9), in vitro kinase assay on immunoprecipitates with ATP and GST-CTD: 3.1 fold

B4: HT2 (protein)
chain: KKKHRRRPSKKKRHWKPYYKLTWEEKKKVDMEPVDPYLEPWKHPGSQPRTACNNCYCKKCCFHCYACFTRKGLGISYG
[2]; 293T cells, ratio of pHT2 to pTat 2:1
  inhibition of Luc expression from the HIV promoter (in words): failed to inhibit
